Binding relative to Boc ecto-Fc data for 2 substances are collected here from PMC3432913.

The assay concerns the target Ptch1-GFP (mouse) (UniProt Q61115). The assay can be described thus: cell surface binding assay.
Chain of UniProt Q61115 (Q61115 whole entry): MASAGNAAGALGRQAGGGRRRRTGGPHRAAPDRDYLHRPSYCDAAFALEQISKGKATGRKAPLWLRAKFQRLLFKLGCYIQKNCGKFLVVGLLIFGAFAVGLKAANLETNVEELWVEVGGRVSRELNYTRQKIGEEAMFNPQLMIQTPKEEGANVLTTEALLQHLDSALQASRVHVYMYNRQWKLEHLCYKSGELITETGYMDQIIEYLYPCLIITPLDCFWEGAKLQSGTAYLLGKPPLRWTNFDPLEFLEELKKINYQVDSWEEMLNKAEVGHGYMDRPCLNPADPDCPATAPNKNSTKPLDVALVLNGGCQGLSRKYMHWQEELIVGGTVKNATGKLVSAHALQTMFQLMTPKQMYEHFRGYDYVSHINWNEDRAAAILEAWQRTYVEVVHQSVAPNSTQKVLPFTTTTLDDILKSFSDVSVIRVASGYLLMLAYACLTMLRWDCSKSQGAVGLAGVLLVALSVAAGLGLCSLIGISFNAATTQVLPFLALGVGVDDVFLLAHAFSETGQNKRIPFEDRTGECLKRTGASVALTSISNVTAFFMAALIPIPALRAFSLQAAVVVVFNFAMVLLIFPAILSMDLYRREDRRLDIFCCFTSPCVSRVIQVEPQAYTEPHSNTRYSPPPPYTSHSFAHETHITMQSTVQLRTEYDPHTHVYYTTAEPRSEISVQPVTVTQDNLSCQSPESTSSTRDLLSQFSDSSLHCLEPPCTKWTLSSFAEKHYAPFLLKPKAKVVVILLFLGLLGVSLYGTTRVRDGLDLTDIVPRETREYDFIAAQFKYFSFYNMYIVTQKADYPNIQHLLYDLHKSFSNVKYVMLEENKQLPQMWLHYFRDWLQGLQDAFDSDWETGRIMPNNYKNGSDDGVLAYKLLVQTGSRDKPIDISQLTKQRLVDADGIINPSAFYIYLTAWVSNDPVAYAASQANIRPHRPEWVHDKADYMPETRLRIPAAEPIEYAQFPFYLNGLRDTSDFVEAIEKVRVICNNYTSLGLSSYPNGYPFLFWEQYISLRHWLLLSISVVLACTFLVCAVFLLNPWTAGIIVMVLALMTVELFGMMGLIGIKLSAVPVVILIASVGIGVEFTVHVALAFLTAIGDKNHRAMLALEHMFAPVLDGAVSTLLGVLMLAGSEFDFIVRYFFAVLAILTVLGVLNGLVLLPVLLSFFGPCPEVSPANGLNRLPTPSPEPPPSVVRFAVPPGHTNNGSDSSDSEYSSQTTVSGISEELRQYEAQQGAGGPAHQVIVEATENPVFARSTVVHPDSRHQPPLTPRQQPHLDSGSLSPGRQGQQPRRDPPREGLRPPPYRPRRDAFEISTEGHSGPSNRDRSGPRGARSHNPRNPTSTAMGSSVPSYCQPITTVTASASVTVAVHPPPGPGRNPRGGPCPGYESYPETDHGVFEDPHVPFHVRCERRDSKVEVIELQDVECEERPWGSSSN

Consider “Boc-Fc construct containing the FNIIIa domain alone (Fc fusion)”, for which the binding relative to Boc ecto-Fc was found to be 60%.
Next, “Boc-Fc construct containing the FNIIIb domain alone (Fc fusion)”: 60%.
